From article PMC7584632

Columns and labels:
[1] = molecular target: SpyCas9 (Streptococcus pyogenes)
[2] = molecular target: SpyCas9 (Streptococcus pyogenes); remark: listed apart in the source

repression of the target mutation at AAVS1 (T7E1 assay, ssODN template) against SpyCas9 alone [2] | Substance | mutagenesis rate by NHEJ (T7E1 assay) with the AcrIIA4-Cdt1-2A-Cas9 vector; SpyCas9 vector alone 8.0% [1] | mutagenesis rate by NHEJ (T7E1 assay) with the AcrIIA4-2A-Cas9 vector; SpyCas9 vector alone 8.0% [1]
79.1% | AcrIIA4-hCdt1(30–120) (from UniProt Q9H211 30-120) | 3.7% | –
– | AcrIIA4 (natural protein) | – | 0.9%
